# Experimental data published in patent US20190298743A1, “TREATMENT OF PAIN” (Takeda Pharmaceutical Company Limited, priority 2016, published 2019).
# B1: cathepsin S: biased agonist protease of PAR2 (protein, UniProt P25774 115-331, looked up)
# Cathepsin S: LPDSVDWREKGCVTEVKYQGSCGACWAFSAVGALEAQLKLKTGKLVSLSAQNLVDCSTEKYGNKGCNGGFMTTAFQYIIDNKGIDSDASYPYKAMDQKCQYDSKYRAATCSKYTELPYGREDVLKEAVANKGPVSVGVDARHPSFFLYRSGVYYEPSCTQNVNHGVLVVGYGDLNGKEYWLVKNSWGHNFGEEGYIRMARNKGNHCGIASFPSYPEI
# Tests used:
# PAR2 [1] = test: BRET receptor trafficking, PAR2-RLuc8 with plasma membrane marker RIT-venus in HEK293 cells; format: cell-based; conditions: trypsin 10 nM
# Method: (§1) Bret studies of receptor trafficking were conducted to quantify PAR2 internalisation (RIT-venus) and trafficking to early endosomes (Rab5a-venus) upon stimulation with different agonists.
# (§2) After achieving ˜50% confluency within 10 cm dishes HEK293 cells were transiently transfected with 1 μg PAR2-RLuc8 and 4 μg of either RIT-venus or Rab5a-venus using PEI as a transfection agent. 24 hours post transfection, cells were seeded into poly-D-lysine coated 96-well isoplates. […] When used endocytic inhibitors were diluted in 1×HBSS+1% dimethyl sulfoxide (DMSO). Following the replacement of culture media cells were allowed to equilibrate at 37° C. for 30 minutes before the addition of colenterazine H [5 μM]. After a further 5 minute incubation BRET was assessed using a LUMIstar Omega microplate reader (BMG LabTech, Offenburg, Germany), with luminescence being read at 535 nm and 475 nm. A 4 minute baseline was obtained before the addition of vehicle (1×HBSS+/−1% DMSO) or protease, measurements were then continued for a further 30 minutes. BRET ratios were calculated using LUMIstar MARS analysis software and then corrected to baseline and vehicle treatments in Microsoft Excel 2013.
# PAR2 [2] = test: BRET receptor trafficking, PAR2-RLuc8 with early endosomal marker Rab5a-venus in HEK293 cells; format: cell-based; conditions: trypsin 10 nM
# Method: as §1, §2
# DRG neurons = test: Perforated patch-clamp excitability (rheobase) of isolated DRG neurons; format: cell-based, mice; conditions: 0 min and 30 min after washing
# Method: To assess the effects of proteases on excitability of nociceptors, DRG neurons were preincubated with trypsin, cathepsin S, elastase or vehicle (control), washed, and rheobase and action potential discharge at a current of twice rheobase were measured at 0 min or 30 min after washing.
# DRG (T9-T13) from C57BL/6 mice were digested by incubation in collagenase (1 mg/ml, Worthington Biochemical, Lakewood, N.J.) and dispase (4 mg/ml, Roche Life Science, Indianapolis, Ind.) for 10 min at 37° C., and were dispersed by trituration with a fire-polished Pasteur pipette. Cells were plated onto coverslips coated with laminin (0.017 mg/ml) and poly-D-lysine (2 mg/ml) in 24-well plates. […]
# Neuronal excitability was assessed by perforated patch-clamp recordings with amphotericin B (240 μg/ml) from small diameter neurons (<30 pF capacitance) in current clamp mode at room temperature. Only neurons with resting membrane potentials more negative than −40 mV were analyzed. Changes in excitability were quantified by measuring rheobase (minimum current to fire action potential) and numbers of action potentials discharged at twice rheobase. […]
# Results are expressed as mean±SE. […]
# [3] = Protease-evoked mechanical hyperalgesia, von Frey paw withdrawal; format: in vivo, mice; conditions: ipsilateral paw
# Method: (§3) Immediately before experiments the mice were acclimatized to the experimental apparatus, room and investigator for 1-2 h on 2 successive days. Mechanical nociceptive responses were evaluated by paw withdrawal to stimulation of the plantar surface of the hind-paw with calibrated von Frey filaments. von Frey scores were measured in triplicate to establish a baseline for each animal on the day before experiments. Paw edema was estimated by measuring the thickness of the hindpaw using digital calipers before and after treatments. Mice were […] with 5% isoflurane for intraplantar injections. Dyngo4a (50 μM), PitStop2 (50 μM) or vehicle (0.2% DMSO in 0.9% NaCl) (all 10 μl) were injected into the left hindpaw. After 30 min, trypsin (10 nM), Cat-S (2.5 μM) or elastase (30 U) (all 10 μl) were injected into the same left hindpaw. von Frey scores (left and right paws) and paw thickness (left paw) were measured hourly for up to 4 h after protease injection. Investigators were blinded to the test agents.
# [4] = Protease-evoked paw edema, hindpaw thickness; format: in vivo, mice; conditions: ipsilateral paw
# Method: as §3
# PAR2 [5] = test: BRET proximity of PAR2 to KRas (plasma membrane) and Rab5a (endosomes) in HEK cells; format: cell-based; conditions: HEK cells
# Method: (§4) The contribution of endocytosis of protease-activated receptor-2 (PAR2) was evaluated for generation of signals in subcellular compartments that mediate protease-evoked sensitization of nociceptors. Bioluminescence resonance energy transfer (BRET) was used to assess the proximity of PAR2 to resident proteins of the plasma membrane (KRas) and endosomes (Rab5a) in HEK cells. […] Förster resonance energy transfer (FRET) biosensors targeted to the plasma membrane, cytosol or nucleus were used to examine the capacity of proteases to generate signals in subcellular compartments of HEK cells and rat dorsal root ganglia neurons. […] Dynamin inhibitor Dyngo4a, Clathrin inhibitor Pitstop2 and dominant negative β-arrestin inhibited trypsin-evoked endocytosis of PAR2, and prevented trypsin-evoked activation of cytosolic cAMP and PKC and nuclear ERK. […] To examine the link between PAR2 endocytosis, compartmentalized signaling and nociceptor sensitization, perforated patch clamp recordings were made from mouse dorsal root ganglia neurons. […] The effects of proteases on excitability were blocked by the PAR2 antagonist GB88. Thus, canonical and biased proteases sensitize nociceptors by distinct mechanisms. For canonical agonists, PAR2 endocytosis generates compartmentalized signals subcellular compartments that underlie sustained excitability of nociceptive neurons. […]
# PAR2 [6] = test: FRET biosensors for compartmentalised cAMP, PKC and ERK signals in HEK cells and rat dorsal root ganglia neurons; format: cell-based
# Method: as §4
molecule,measurement,setting,value
B1,Change in BRET between PAR2 and plasma membrane marker upon agonist stimulation,PAR2 [1],not observed
same,Change in BRET between PAR2 and early endosomal marker upon agonist stimulation,PAR2 [2],not observed
same,Effect of protease on excitability (rheobase) of DRG neurons,DRG neurons,immediate increase in excitability
same,Mechanical hyperalgesia after intraplantar injection of protease,[3],caused mechanical hyperalgesia of the ipsilateral paw that was sustained for at least 4 h
same,Edema after intraplantar injection of protease,[4],edema of the ipsilateral paw that was maximal after 4 h
same,PAR2 endocytosis induced by agonist,PAR2 [5],did not induce PAR2 endocytosis
same,Signals generated by protease in subcellular compartments,PAR2 [6],only activated cAMP and PKC at the plasma membrane and ERK in the cytosol
